# Positions count from the first letter of the chain named.
# B1: ADAM10D+C[EEE-A]: ADAM10D+C with Glu573, Glu578 and Glu579 mutated to alanines (protein)
# chain: SGQPICGNGMVEQGEECDCGYSDQCKDECCYDANQPEGKKCKLKPGKQCSPSQGPCCTAHCAFKSKTEKCRDDSDCAKEGICNGITALCPASDPKPNFTDCNRHTQVCINGQCAGSICAKHGLAACTCASSDGKDDKELCHVCCMKKMEPSTCASTGSVQWNKYFLGRTITLQPGSPCNDFRGYCDVFMRCR
# B2: ADAM10D+C[RDD-A]: ADAM10D+C with Ala substitutions of Arg525, Asp526, Asp527 (protein)
# chain: B1 chain with R71A, D72A, D73A, A119E, A124E, A125E
# B3: full-length ADAM10[EEE-A] (protein)
# chain: TTVAEKNTCQLYIQTDHLFFKYYGTREAVIAQISSHVKAIDTIYQTTDFSGIRNISFMVKRIRINTTADEKDPTNPFRFPNIGVEKFLELNSEQNHDDYCLAYVFTDRDFDDGVLGLAWVGAPSGSSGGICEKSKLYSDGKKKSLNTGIITVQNYGSHVPPKVSHITFAHEVGHNFGSPHDSGTECTPGESKNLGQKENGNYIMYARATSGDKLNNNKFSLCSIRNISQVLEKKRNNCFVESGQPICGNGMVEQGEECDCGYSDQCKDECCYDANQPEGKKCKLKPGKQCSPSQGPCCTAHCAFKSKTEKCRDDSDCAKEGICNGITALCPASDPKPNFTDCNRHTQVCINGQCAGSICAKHGLAACTCASSDGKDDKELCHVCCMKKMEPSTCASTGSVQWNKYFLGRTITLQPGSPCNDFRGYCDVFMRCRLVDADGPLARLKKAIFSPELYENIAEWIVAYWWAVLLMGIALIMLMAGFIKICSVHTPSSNPKLPPPKPLPGTLKRRRPPQPIQQPQRQRPRESYQMGHMRR
# B4: full-length ADAM10 with lysine (3K) substitutions of Glu573, 578, 579 (protein)
# chain: B3 chain with A360K, A365K, A366K
# Columns and labels:
# EphA3/HEK293 cells = test: Ephrin-A5 cleavage and internalisation in EphA3-expressing cells treated with clustered ephrin-A5-Fc / ephrinA5-Fc beads; format: cell-based, human
# Description: FIG. 1. EphA3-ADAM10 association, ephrin-A5 cleavage and ephrin internalisation. • A. Association of ADAM10 with EphA3 in LiBr melanoma cells and parental or stably transfected EphA3/HEK293 cells. The cells were treated with clustered ephrin-Fc (A5 or A2) or were left untreated (−) prior to lysis. Anti-EphA3 immunoprecipitates from lysates were analysed by Western blot for endogenous ADAM10 (“p” and “m” indicate the pro (unprocessed) and mature (processed) forms of ADAM10). Aliquots from immunoprecipitates were blotted for EphA3 levels to indicate loading (lower panel). […] EphA3/HEK293 or ephrin-A5/HEK293 cells were transfected to express HA-tagged ADAM10ΔPM. Western Blots of anti-HA immuno-precipitates were analysed with antibodies against ephrin-A5 and EphA3, parallel control samples with anti-ADAM10 antibodies. Lysates of ephrin-A5/HEK 293 cells were also extracted with Protein-A Sepharose-bound EphA3 Fc and analysed with anti-ephrin-A5 antibodies. • C. […] Pooled cell lysates and supernatants were pre-cleared with excess Protein-A Sepharose, cleaved ephrin-A5 was extracted using EphA3-Fc coupled to Protein-A Sepharose and analysed by anti-ephrin-A5 immuno-blot. Recombinant, monomeric, single-chain ephrin-A5 (Himanen et al., 2004, Nat Neurosci. 7 501-9; ephrin std) was analysed in parallel. • D. Ephrin-A5 cleavage and internalisation are inhibited by dominant-negative ADAM10. […]
# EphA3/ephrin-A5 complex = target: T1, EphA3/ephrin-A5 complex (Homo sapiens, UniProt P29320+P52803); test: In vitro binding (Protein-A pull-down) assay; conditions: EphA3-Fc plus untagged ephrin-A5
# T1 construct: incubated with Fc-tagged ectodomains of Eph-A3, EphB2, EphB4 and ephrin-A2, ephrin-A5, ephrin-B2 (R&D systems)
# T1 sequence (P29320 21-541 limits assumed): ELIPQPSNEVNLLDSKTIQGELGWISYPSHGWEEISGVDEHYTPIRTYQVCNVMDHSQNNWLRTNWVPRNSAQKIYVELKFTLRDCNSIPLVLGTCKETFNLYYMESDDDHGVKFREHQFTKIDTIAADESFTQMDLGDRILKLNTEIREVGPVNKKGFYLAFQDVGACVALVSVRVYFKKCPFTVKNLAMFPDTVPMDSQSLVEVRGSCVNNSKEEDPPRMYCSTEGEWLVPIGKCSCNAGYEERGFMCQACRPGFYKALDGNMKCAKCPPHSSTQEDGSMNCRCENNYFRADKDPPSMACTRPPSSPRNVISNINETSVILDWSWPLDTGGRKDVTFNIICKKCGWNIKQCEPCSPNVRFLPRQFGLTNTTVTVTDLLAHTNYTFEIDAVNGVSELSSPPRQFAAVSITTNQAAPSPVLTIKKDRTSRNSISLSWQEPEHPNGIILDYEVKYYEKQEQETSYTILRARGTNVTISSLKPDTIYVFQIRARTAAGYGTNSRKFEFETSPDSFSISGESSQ
# T1 sequence (P52803 21-203 limits assumed): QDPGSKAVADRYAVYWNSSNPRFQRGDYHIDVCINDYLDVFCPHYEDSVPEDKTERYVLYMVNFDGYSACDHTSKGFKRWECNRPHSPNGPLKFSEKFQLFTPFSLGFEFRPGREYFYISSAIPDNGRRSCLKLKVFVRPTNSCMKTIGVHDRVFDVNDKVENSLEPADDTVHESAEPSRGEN
# Description: Pull-down experiments were done as follows: ADAM10D+C, ADAM17D+C w.t. or the alanine mutants (˜15 μg) were incubated with Fc-tagged ectodomains of Eph-A3, EphB2, EphB4 and ephrin-A2, ephrin-A5, ephrin-B2 (R&D systems) at 4° C. for 30 min in 500 μL of binding buffer containing 10 mM HEPES (pH 7.4), 150 mM NaCl and 0.05% of Triton X-100. To test binding to the preformed EphA3/ephrin-A5 complex, 5 μg of the untagged ephrin-A5 was incubated with Fc tagged EphA3 for 30 min at 4° C. followed by the addition of ADAM10. The proteins were incubated for an additional 30 min., when Protein-A-Sepharose (Amersham) beads were added to the reaction mixture and shaken at 4° C. for 2h. The beads were then harvested by centrifugation, washed once with 500 μl of binding buffer and the bound proteins were separated on a 10-20% gradient polyacrylamide gel. The binding of the individual ADAM domains was carried out likewise using 15 μg of the disintegrin and 8 μg of the cysteine-rich domain.
# [1] = target: T2, EphA3/ephrin-A5 complex on cells (cell-surface EphA3 with pre-clustered ephrin-A5-Fc), P29320
# T2 chain 1: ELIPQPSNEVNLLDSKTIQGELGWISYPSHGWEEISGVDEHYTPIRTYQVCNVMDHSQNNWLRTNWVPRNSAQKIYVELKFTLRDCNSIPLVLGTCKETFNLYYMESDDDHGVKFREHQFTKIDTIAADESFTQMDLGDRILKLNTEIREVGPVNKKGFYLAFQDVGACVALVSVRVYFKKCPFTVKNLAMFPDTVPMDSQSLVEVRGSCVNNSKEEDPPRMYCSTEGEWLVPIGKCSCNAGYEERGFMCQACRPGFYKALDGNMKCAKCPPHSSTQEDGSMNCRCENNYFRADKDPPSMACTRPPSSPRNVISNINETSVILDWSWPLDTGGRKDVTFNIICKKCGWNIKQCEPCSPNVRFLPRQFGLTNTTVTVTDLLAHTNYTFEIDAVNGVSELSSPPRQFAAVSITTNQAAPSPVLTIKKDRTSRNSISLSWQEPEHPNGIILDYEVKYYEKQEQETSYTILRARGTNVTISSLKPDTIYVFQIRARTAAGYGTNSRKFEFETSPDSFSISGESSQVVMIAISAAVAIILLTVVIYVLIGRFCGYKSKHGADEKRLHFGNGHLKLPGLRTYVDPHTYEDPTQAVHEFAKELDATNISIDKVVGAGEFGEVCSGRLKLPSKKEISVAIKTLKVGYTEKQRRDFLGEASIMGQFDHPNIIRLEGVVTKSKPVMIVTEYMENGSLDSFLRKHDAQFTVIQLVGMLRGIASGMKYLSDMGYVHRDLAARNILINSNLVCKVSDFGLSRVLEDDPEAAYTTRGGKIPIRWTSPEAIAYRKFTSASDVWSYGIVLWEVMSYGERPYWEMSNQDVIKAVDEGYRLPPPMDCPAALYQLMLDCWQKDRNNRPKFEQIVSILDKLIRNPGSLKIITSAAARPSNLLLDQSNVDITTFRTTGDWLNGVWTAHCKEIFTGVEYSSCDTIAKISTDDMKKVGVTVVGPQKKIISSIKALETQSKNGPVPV
# T2 chain 2: T1 sequence (P52803 21-203 limits assumed)
Molecule,binding to EphA3/ephrin-A5 complex (EphA3/ephrin-A5 complex),"ephrin-A5 cleavage (cleaved ephrin-A5 recovered with EphA3-Fc, anti-ephrin-A5 Western blot) [1]",also measured
"c1cnc2c(c1)ccc1cccnc12 [1,10-O-Phenanthroline]",–,–,ephrin-A5 cleavage and internalisation (EphA3/HEK293 cells; pretreated with 1 mM OPN (4h)): inhibited
CC(C)C[C@H](CC(=O)NO)C(=O)N[C@@H](Cc1ccc2ccccc2c1)C(=O)N[C@@H](C)C(=O)NCCN [TAPI],–,–,ephrin-A5 cleavage and internalisation (EphA3/HEK293 cells; pretreated with 50 μM TAPI1 (1h)): inhibited
B1,does not bind,–,–
B2,retains wild-type binding affinity,–,–
B3,–,"overexpression of mutant ADAM10 with Ala or Lys substitutions of the three Glu residues or lacking the protease domain, effectively inhibited ephrin-A5 cleavage",–
B4,–,"overexpression of mutant ADAM10 with Ala or Lys substitutions of the three Glu residues or lacking the protease domain, effectively inhibited ephrin-A5 cleavage",–
